Test results published in patent US20240263161A1 (UNIVERSITY OF COPENHAGEN, published 2024).

Columns and labels:
[1] = biological target: membrane bound MUC1 TR reporter on HEK293 WT cells (core2 O-glycans) (human) (UniProt P15941); assay: cell-based or functional assay
[2] = biological target: secreted purified MUC1 TR reporter, WT glycoform (core2 sialylated O-glycans, HEK293 WT) (human) (UniProt P15941); assay: cell-based or functional assay
[3] = biological target: T1, secreted purified MUC5AC TR reporter, WT glycoform (core2 sialylated O-glycans, HEK293 WT) (human, UniProt P98088 2708-2850); assay: microscale thermophoresis (MST), […]
T1 sequence: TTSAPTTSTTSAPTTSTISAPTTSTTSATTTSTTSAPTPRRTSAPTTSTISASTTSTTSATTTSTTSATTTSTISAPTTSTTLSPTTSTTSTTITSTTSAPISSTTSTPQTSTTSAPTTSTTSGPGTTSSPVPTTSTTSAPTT

[4] = biological target: T2, secreted purified MUC5AC TR reporter, Tn glycoform (human, UniProt P98088 2708-2850); assay: microscale thermophoresis (MST), […]
T2 sequence: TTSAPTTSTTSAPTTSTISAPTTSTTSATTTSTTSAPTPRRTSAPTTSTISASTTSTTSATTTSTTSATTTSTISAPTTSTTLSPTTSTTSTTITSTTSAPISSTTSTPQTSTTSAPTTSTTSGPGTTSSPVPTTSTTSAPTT

[5] = biological target: secreted purified MUC1 TR reporter, WT glycoform (core2 sialylated O-glycans, HEK293 WT) (human, UniProt P15941 121-260); assay: microscale thermophoresis (MST), […]
[6] = biological target: secreted purified MUC21 TR reporter, Tn glycoform (human, UniProt Q5SSG8 130-278); assay: ELISA with purified secreted reporters
Chain of secreted purified MUC21 TR reporter, Tn glycoform (Q5SSG8 130-278): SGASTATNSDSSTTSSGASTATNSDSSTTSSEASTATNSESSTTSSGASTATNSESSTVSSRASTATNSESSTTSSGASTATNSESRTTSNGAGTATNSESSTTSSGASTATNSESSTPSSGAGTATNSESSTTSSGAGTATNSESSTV

Chain of secreted purified MUC1 TR reporter, WT glycoform (core2 sialylated O-glycans, HEK293 WT) (P15941 121-260): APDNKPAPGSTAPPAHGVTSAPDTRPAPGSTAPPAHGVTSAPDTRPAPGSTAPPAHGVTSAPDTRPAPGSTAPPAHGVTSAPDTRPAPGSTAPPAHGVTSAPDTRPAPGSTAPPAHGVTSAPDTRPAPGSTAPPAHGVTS
Chain of membrane bound MUC1 TR reporter on HEK293 WT cells (core2 O-glycans) (human) (P15941 121-260 limits assumed): as the sequence (P15941 121-260) above
Chain of secreted purified MUC1 TR reporter, WT glycoform (core2 sialylated O-glycans, HEK293 WT) (human) (P15941 121-260): as above

StcE (Secreted protease of C1 esterase inhibitor) wildtype, recombinant (from UniProt O82882 36-898) (enzyme)
cleavage, dose titration on cells (flow cytometry) [1]: > 10 µg/mL | cleavage, dose titration with the isolated reporter (SDS-PAGE) [2]: > 10 µg/mL

B1: AlexaFluoro647 labelled MBP-X409 (other)
chain: EGCIVSVNSGKRYCLPVGQRSGYSLPDWIVGQEVYVDSGAKAKVLLSDWDNLSYNRIGEFVGNVNPADMKKVKAWNGQYLDFSKPRSMRVVYK
Kd [3]: 14 nM | Kd [4]: 37 nM | Kd [5]: 2600 nM | fold lower binding affinity (against MUC5Ac) [5]: > 1000 fold

B2: X409 module of Escherichia coli O157:H7 StcE (tags of the construct not stated) (other)
chain: EGCIVSVNSGKRYCLPVGQRSGYSLPDWIVGQEVYVDSGAKAKVLLSDWDNLSYNRIGEFVGNVNPADMKKVKAWNGQYLDFSKPRSMRVVYK
binding result [6]: binds
